# Experimental data published in FireProtDB (doi:10.1006/jmbi.1999.2772).
# Details: Thermotoga maritima (strain ATCC 43589 / DSM 3109 / JCM 10099 / NBRC 100826 / MSB8), Thermal, DSC
# [1] = pH 4, Sodium acetate 20 mM, reversible: yes
# [2] = pH 4.5, Sodium acetate 20 mM, reversible: yes(94%)
# [3] = pH 4.8, Sodium acetate 20 mM, reversible: yes(91%)
# [4] = pH 5.7, Sodium cacodylate-HCl 20 mM, reversible: yes(97%)
# [5] = pH 6, Sodium cacodylate-HCl 20 mM, reversible: yes(98%)
# [6] = pH 6.1, Sodium cacodylate-HCl 20 mM, reversible: yes(97%)
# [7] = pH 6.35, Sodium cacodylate-HCl 20 mM, reversible: yes
# [8] = pH 6.75, Sodium cacodylate-HCl 20 mM, reversible: yes
# [9] = pH 7, Sodium cacodylate-HCl 20 mM, reversible: yes(95%)
# [10] = pH 7.2, Sodium phosphate 20 mM, reversible: yes(97%)
# [11] = pH 7.25, Sodium cacodylate-HCl 20 mM, reversible: yes(98%)
# [12] = pH 7.4, Sodium phosphate 20 mM, reversible: yes(98%)
# [13] = pH 7.5, Sodium phosphate 20 mM, reversible: yes(97%)
# [14] = pH 8.1, borate-NaOH 20 mM, reversible: yes(99%)
# [15] = pH 8.4, borate-NaOH 20 mM, reversible: yes(97%)
# [16] = pH 8.5, borate-NaOH 20 mM, reversible: yes(98%)
# [17] = pH 8.9, borate-NaOH 20 mM, reversible: yes
# Cold shock-like protein wild type, O54310, sequence (O54310 whole entry): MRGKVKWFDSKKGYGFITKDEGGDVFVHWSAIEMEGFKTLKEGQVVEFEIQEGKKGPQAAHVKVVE
substance,measurement,setting,value
"Cold shock-like protein wild type, O54310",Tm,[1],87.9 °C
same,heat capacity change of unfolding,[1],0.36 kcal/mol/K
same,unfolding enthalpy (calorimetric),[1],50.1 kcal/mol
same,Tm,[2],91.6 °C
same,heat capacity change of unfolding,[2],0.05 kcal/mol/K
same,unfolding enthalpy (calorimetric),[2],56.2 kcal/mol
same,Tm,[3],94.1 °C
same,heat capacity change of unfolding,[3],0.22 kcal/mol/K
same,unfolding enthalpy (calorimetric),[3],62 kcal/mol
same,unfolding enthalpy (van 't Hoff),[3],57 kcal/mol
same,Tm,[4],93.3 °C
same,heat capacity change of unfolding,[4],0.08 kcal/mol/K
same,unfolding enthalpy (calorimetric),[4],71.9 kcal/mol
same,unfolding enthalpy (van 't Hoff),[4],68.3 kcal/mol
same,Tm,[5],92.1 °C
same,heat capacity change of unfolding,[5],0.17 kcal/mol/K
same,unfolding enthalpy (calorimetric),[5],74.6 kcal/mol
same,unfolding enthalpy (van 't Hoff),[5],71 kcal/mol
same,Tm,[6],91.2 °C
same,heat capacity change of unfolding,[6],0.55 kcal/mol/K
same,unfolding enthalpy (calorimetric),[6],69.5 kcal/mol
same,unfolding enthalpy (van 't Hoff),[6],64.5 kcal/mol
same,Tm,[7],89.6 °C
same,heat capacity change of unfolding,[7],0.5 kcal/mol/K
same,unfolding enthalpy (calorimetric),[7],68 kcal/mol
same,unfolding enthalpy (van 't Hoff),[7],63 kcal/mol
same,Tm,[8],85.8 °C
same,heat capacity change of unfolding,[8],0.18 kcal/mol/K
same,unfolding enthalpy (calorimetric),[8],65 kcal/mol
same,unfolding enthalpy (van 't Hoff),[8],58.3 kcal/mol
same,Tm,[9],82 °C
same,heat capacity change of unfolding,[9],0.36 kcal/mol/K
same,unfolding enthalpy (calorimetric),[9],62.6 kcal/mol
same,unfolding enthalpy (van 't Hoff),[9],60.8 kcal/mol
same,Tm,[10],83.1 °C
same,heat capacity change of unfolding,[10],0.22 kcal/mol/K
same,unfolding enthalpy (calorimetric),[10],65.3 kcal/mol
same,unfolding enthalpy (van 't Hoff),[10],61 kcal/mol
same,Tm,[11],82.8 °C
same,heat capacity change of unfolding,[11],0.4 kcal/mol/K
same,unfolding enthalpy (calorimetric),[11],61.3 kcal/mol
same,unfolding enthalpy (van 't Hoff),[11],57.5 kcal/mol
same,Tm,[12],80.8 °C
same,heat capacity change of unfolding,[12],0.38 kcal/mol/K
same,unfolding enthalpy (calorimetric),[12],60.8 kcal/mol
same,unfolding enthalpy (van 't Hoff),[12],55.7 kcal/mol
same,Tm,[13],81.1 °C
same,heat capacity change of unfolding,[13],0.11 kcal/mol/K
same,unfolding enthalpy (calorimetric),[13],54.4 kcal/mol
same,unfolding enthalpy (van 't Hoff),[13],50.4 kcal/mol
same,Tm,[14],81 °C
same,heat capacity change of unfolding,[14],0.01 kcal/mol/K
same,unfolding enthalpy (calorimetric),[14],54.7 kcal/mol
same,unfolding enthalpy (van 't Hoff),[14],51 kcal/mol
same,Tm,[15],77.5 °C
same,heat capacity change of unfolding,[15],0.5 kcal/mol/K
same,unfolding enthalpy (calorimetric),[15],56.1 kcal/mol
same,Tm,[16],77.6 °C
same,heat capacity change of unfolding,[16],0.06 kcal/mol/K
same,unfolding enthalpy (calorimetric),[16],53.9 kcal/mol
same,unfolding enthalpy (van 't Hoff),[16],51.7 kcal/mol
same,Tm,[17],75.5 °C
same,heat capacity change of unfolding,[17],0.5 kcal/mol/K
same,unfolding enthalpy (calorimetric),[17],56.1 kcal/mol
